Data: EP0797662B1 (NEW YORK UNIVERSITY, dated 1995)

Molecular target: T1, SHC (54 kDa band, in lysates of NIH 3T3 cells expressing the EGFR/HER2 chimera) (mouse, UniProt P98083-2 1-469, limits assumed, tyrosine phosphorylated after EGF stimulation)
T1 sequence (looked up): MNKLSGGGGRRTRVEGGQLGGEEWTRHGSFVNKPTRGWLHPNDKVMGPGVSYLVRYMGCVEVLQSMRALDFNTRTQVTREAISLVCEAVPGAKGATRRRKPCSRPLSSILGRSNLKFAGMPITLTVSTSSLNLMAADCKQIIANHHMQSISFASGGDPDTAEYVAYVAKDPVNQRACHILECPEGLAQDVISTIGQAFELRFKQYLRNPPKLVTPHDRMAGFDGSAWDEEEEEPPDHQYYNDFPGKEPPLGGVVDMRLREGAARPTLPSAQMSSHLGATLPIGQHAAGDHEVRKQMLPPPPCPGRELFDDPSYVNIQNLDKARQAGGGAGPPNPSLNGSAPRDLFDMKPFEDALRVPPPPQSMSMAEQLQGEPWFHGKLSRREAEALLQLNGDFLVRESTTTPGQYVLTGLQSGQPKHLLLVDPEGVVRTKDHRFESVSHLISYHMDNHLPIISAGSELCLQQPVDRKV
Assay: blot of lysate of NIH 3T3 cells with the chimera probed with 32P-labelled GST-GRB-7 SH2

- binding result: binds
B1: GST fusion protein of the GRB-7 SH2 domain (amino acids 419-535) in pGSTag (other, mouse, UniProt Q03160 419-535, looked up)
chain: CSGSSLSAAIHRTQPWFHGRISREESQRLIGQQGLVDGVFLVRESQRNPQGFVLSLCHLQKVKHYLILPSEDEGCLYFSMDEGQTRFTDLLQLVEFHQLNRGILPCLLRHCCARVAL
modifications: 32P-phosphate at the protein kinase A site of the vector when used as the probe
notes: range 419-535; also called GST-GRB-7-SH2; [32P]GRB-7 SH2 domain; not shown: glutathione S-transferase of the pGSTag vector; protein kinase A phosphorylation site and linker of pGSTag
